In US20240034774A1 (Gilead, published 2024):

Key:
[1] = target: HIV-1 envelope glycoprotein gp120 of viral isolate 92US712 (HIV-1); assay: cell-based or functional assay
[2] = target: HIV-1 envelope glycoprotein gp120 of viral isolate 92US657 (HIV-1); assay: cell-based or functional assay

B1: Antibody A-6 (antibody, human IgG1, kappa)
heavy: QVQLLQSGAAVTKPGASVRVSCEASGYNIRDYFIHWWRQAPGQGLQWVGWINPKTGQPNNPRQFQGRVSLTRHASWDFDTFSFYMDLKALRSDDTAVYFCARQRSDYWDFDVWGSGTQVTVSSASTKGPSVFPLAPSSKSTSGGTAALGCLVKDYFPEPVTVSWNSGALTSGVHTFPAVLQSSGLYSLSSVVTVPSSSLGTQTYICNVNHKPSNTKVDKKVEPKSCDKTHTCPPCPAPELLGGPSVFLLPPKPKDTLMISRTPEVTCVVVDVSHEDPEVKFNWYVDGVEVHNAKTKPPEEQYNSTLRVVSILTVLHQDWLNGKEYKCKVSNKALPAPIEKTISKAKGQPREPQVYTLPPSREEMTKNQVSLTCLVKGFYPSDIAVEWESNGQPENNYKTTPLVLDSDGSFFLYSKLTVDKSRWQQGNVFSCSVLHEALHSHYTQKSLSLSPGK
light: DIQMTQSPSSLSASVGDTVTITCQANGYLNWYQQRRGKAPKLLIYDGSKLERGVPSRFSGRRWGQEYNLTINNLQPEDIATYFCQVYEFVVPGTRLDLKRTVAAPSVFIFPPSDEQLKSGTASVVCLLNNFYPREAKVQWKVDNALQSGNSQESVTEQDSKDSTYSLSSTLTLSKADYEKHKVYACEVTHQGLSSPVTKSFNRGEC
- ADCC EC50, NK Donor 1 [1]: 0.27 µg/mL
- ADCC EC50, NK Donor 2 [1]: 0.54 µg/mL
- ADCC EC50, NK Donor 3 [1]: 0.18 µg/mL
- ADCC Emax, NK Donor 1 [1]: 68%
- ADCC Emax, NK Donor 2 [1]: 54%
- ADCC Emax, NK Donor 3 [1]: 51%
- ADCC EC50, NK Donor 1 [2]: 3.93 µg/mL
- ADCC EC50, NK Donor 2 [2]: 1.21 µg/mL
- ADCC EC50, NK Donor 3 [2]: 3.21 µg/mL
- ADCC Emax, NK Donor 1 [2]: 54%
- ADCC Emax, NK Donor 2 [2]: 53%
- ADCC Emax, NK Donor 3 [2]: 52%

B2: Antibody A-2 (antibody, human IgG1, kappa)
heavy: QVQLLQSGAAVTKPGASVRVSCEASGYNIRDYFIHWWRQAPGQGLQWVGWINPKTGQPNNPRQFQGRVSLTRHASWDFDTFSFYMDLKALRSDDTAVYFCARQRSDYWDFDVWGSGTQVTVSSASTKGPSVFPLAPSSKSTSGGTAALGCLVKDYFPEPVTVSWNSGALTSGVHTFPAVLQSSGLYSLSSVVTVPSSSLGTQTYICNVNHKPSNTKVDKKVEPKSCDKTHTCPPCPAPELLAGPDVFLFPPKPKDTLMISRTPEVTCVVVDVSHEDPEVKFNWYVDGVEVHNAKTKPREEQYNSTYRVVSVLTVLHQDWLNGKEYKCKVSNKALPLPEEKTISKAKGQPREPQVYTLPPSREEMTKNQVSLTCLVKGFYPSDIAVEWESNGQPENNYKTTPPVLDSDGSFFLYSKLTVDKSRWQQGNVFSCSVMHEALHNHYTQKSLSLSPGK
light: DIQMTQSPSSLSASVGDTVTITCQANGYLNWYQQRRGKAPKLLIYDGSKLERGVPSRFSGRRWGQEYNLTINNLQPEDIATYFCQVYEFVVPGTRLDLKRTVAAPSVFIFPPSDEQLKSGTASVVCLLNNFYPREAKVQWKVDNALQSGNSQESVTEQDSKDSTYSLSSTLTLSKADYEKHKVYACEVTHQGLSSPVTKSFNRGEC
- ADCC EC50, NK Donor 1 [1]: 0.18 µg/mL
- ADCC EC50, NK Donor 2 [1]: 0.08 µg/mL
- ADCC EC50, NK Donor 3 [1]: 0.2 µg/mL
- ADCC Emax, NK Donor 1 [1]: 76%
- ADCC Emax, NK Donor 2 [1]: 60%
- ADCC Emax, NK Donor 3 [1]: 60%
- ADCC EC50, NK Donor 1 [2]: 0.54 µg/mL
- ADCC EC50, NK Donor 2 [2]: 0.81 µg/mL
- ADCC EC50, NK Donor 3 [2]: 1.13 µg/mL
- ADCC Emax, NK Donor 1 [2]: 59%
- ADCC Emax, NK Donor 2 [2]: 51%
- ADCC Emax, NK Donor 3 [2]: 56%
